# From publication PMC12102759
# B1: PAIP1 peptide 126-141 (Polyadenylate-binding protein-interacting protein 1), 16-mer library wild type / PABPC1 PABC (PABPC1 PABC domain, residues 544-623) (parent)
# chain 1: SKLSVNAPEFYPSGYS
# chain 2: PLTASMLASAPPQEQKQMLGERLFPLIQAMHPTLAGKITGMLLEIDNSELLHMLESPESLRSKVDEAVAVLQAHQAKEAA
# Variants of: B1
# Assay: proteomic peptide phage display deep mutational scan (ProP-PD DMS): M13 P8 16-mer library selected against immobilised GST-tagged bait for four days (rounds), NGS of the eluted pools per day and pseudo-replica
# Settings: with PABPC1 PABC (PABPC1 PABC domain, residues 544-623); bait immobilised on MaxiSorp plates (10 µg), library pre-cleared on GST, 2 h binding at 4 °C, five washes; one round per day, days 1-4; value from days 2 and 3; keep out of graded; scale: average fractional NGS count over selection days 2 and 3
row,Variant,screen value
1,chain 1 SFLSVNAPEFYPSGYS [chain 1 K2F],0.000245
2,chain 1 SYLSVNAPEFYPSGYS [chain 1 K2Y],0.000158
3,chain 1 SNLSVNAPEFYPSGYS [chain 1 K2N],0.000212
4,chain 1 SKLSVNAPEQYPSGYS [chain 1 F10Q],0
5,chain 1 SKLSVNAPEDYPSGYS [chain 1 F10D],0
6,chain 1 SKLSVNAPEYYPSGYS [chain 1 F10Y],0.00206
7,chain 1 SKLSVNAPEVYPSGYS [chain 1 F10V],0
8,chain 1 NKLSVNAPEFYPSGYS [chain 1 S1N],0.000154
9,chain 1 IKLSVNAPEFYPSGYS [chain 1 S1I],0.00076
10,chain 1 AKLSVNAPEFYPSGYS [chain 1 S1A],0.0012
11,chain 1 HKLSVNAPEFYPSGYS [chain 1 S1H],0.000214
12,chain 1 PKLSVNAPEFYPSGYS [chain 1 S1P],0.000196
13,chain 1 FKLSVNAPEFYPSGYS [chain 1 S1F],0
14,chain 1 WKLSVNAPEFYPSGYS [chain 1 S1W],0.000299
15,chain 1 RKLSVNAPEFYPSGYS [chain 1 S1R],7.1e-05
16,chain 1 SKLSVNAPEFYTSGYS [chain 1 P12T],0.000222
17,chain 1 SKLSVNAPEFYVSGYS [chain 1 P12V],5.13e-05
18,chain 1 SKLSVNAPEFYSSGYS [chain 1 P12S],0.00133
19,chain 1 SKLSVNAPEFYYSGYS [chain 1 P12Y],0.00157

row,Variant,screen value
1,chain 1 SKLSVNAPEFYASGYS [chain 1 P12A],0.00198
2,chain 1 SKLSVNAPEFYRSGYS [chain 1 P12R],4.76e-05
3,chain 1 SKLSVNAPEFYQSGYS [chain 1 P12Q],0.000152
4,chain 1 SKPSVNAPEFYPSGYS [chain 1 L3P],9.03e-05
5,chain 1 SKVSVNAPEFYPSGYS [chain 1 L3V],0.000373
6,chain 1 SKLMVNAPEFYPSGYS [chain 1 S4M],8.55e-05
7,chain 1 SKLQVNAPEFYPSGYS [chain 1 S4Q],0.00694
8,chain 1 SKLEVNAPEFYPSGYS [chain 1 S4E],0.000106
9,chain 1 SKLAVNAPEFYPSGYS [chain 1 S4A],0.00227
10,chain 1 SKLDVNAPEFYPSGYS [chain 1 S4D],0
11,chain 1 SKLRVNAPEFYPSGYS [chain 1 S4R],0.000365
12,chain 1 SKLKVNAPEFYPSGYS [chain 1 S4K],0.000353
13,chain 1 SKLGVNAPEFYPSGYS [chain 1 S4G],0.000919
14,chain 1 SKLVVNAPEFYPSGYS [chain 1 S4V],9.02e-05
15,chain 1 SKLSVNGPEFYPSGYS [chain 1 A7G],0.000863
16,chain 1 SKLSVNNPEFYPSGYS [chain 1 A7N],0.000551
17,chain 1 SKLSVNQPEFYPSGYS [chain 1 A7Q],0.00119
18,chain 1 SKLSVNMPEFYPSGYS [chain 1 A7M],0.000228
19,chain 1 SKLSVNHPEFYPSGYS [chain 1 A7H],0.000147

row,Variant,screen value
1,chain 1 SKLSVNLPEFYPSGYS [chain 1 A7L],4.17e-05
2,chain 1 SKLSVGAPEFYPSGYS [chain 1 N6G],0.000194
3,chain 1 SKLSVEAPEFYPSGYS [chain 1 N6E],0
4,chain 1 SKLSVLAPEFYPSGYS [chain 1 N6L],0.00023
5,chain 1 SKLSVRAPEFYPSGYS [chain 1 N6R],0.000467
6,chain 1 SKLSVWAPEFYPSGYS [chain 1 N6W],0.000917
7,chain 1 SKLSVPAPEFYPSGYS [chain 1 N6P],0
8,chain 1 SKLSVMAPEFYPSGYS [chain 1 N6M],0.000149
9,chain 1 SKLSVYAPEFYPSGYS [chain 1 N6Y],0.000705
10,chain 1 SKLSVVAPEFYPSGYS [chain 1 N6V],0.000215
11,chain 1 SKLSVNAPEFYPSTYS [chain 1 G14T],0.000205
12,chain 1 SKLSVNAPEFYPSKYS [chain 1 G14K],0.000153
13,chain 1 SKLSVNAPEFYPSAYS [chain 1 G14A],0.00104
14,chain 1 SKLSVNAPEFYPSVYS [chain 1 G14V],0.000565
15,chain 1 SKLSVNAPEFYPSIYS [chain 1 G14I],0.000195
16,chain 1 SKLSVNAPEFYPSEYS [chain 1 G14E],0.000246
17,chain 1 SKLSVNAPEFYPSPYS [chain 1 G14P],0.00116
18,chain 1 SKLSVNAPEFYPSMYS [chain 1 G14M],0.000578
19,chain 1 SKLSVNAPEFYPSSYS [chain 1 G14S],0.000279

# Now from value to variant:
row,screen value,Variant
1,0.00022,chain 1 SPLSVNAPEFYPSGYS [chain 1 K2P]
2,0.000197,chain 1 SDLSVNAPEFYPSGYS [chain 1 K2D]
3,0.0171,chain 1 SKLSVNAPEWYPSGYS [chain 1 F10W]
4,0.00185,chain 1 LKLSVNAPEFYPSGYS [chain 1 S1L]
5,0.000406,chain 1 QKLSVNAPEFYPSGYS [chain 1 S1Q]
6,0.000342,chain 1 YKLSVNAPEFYPSGYS [chain 1 S1Y]
7,0.000196,chain 1 VKLSVNAPEFYPSGYS [chain 1 S1V]
8,0.0011,chain 1 MKLSVNAPEFYPSGYS [chain 1 S1M]
9,0.00037,chain 1 KKLSVNAPEFYPSGYS [chain 1 S1K]
10,0.00211,chain 1 SKLSVNAPEFYLSGYS [chain 1 P12L]
11,0.00121,chain 1 SKLSVNAPEFYFSGYS [chain 1 P12F]
12,0.00057,chain 1 SKLSVNAPEFYHSGYS [chain 1 P12H]
13,0.000484,chain 1 SKLSVNAPEFYESGYS [chain 1 P12E]
14,8.81e-05,chain 1 SKLSVNAPEFYNSGYS [chain 1 P12N]
15,0.000643,chain 1 SKLSVNAPEFYMSGYS [chain 1 P12M]
16,0.000623,chain 1 SKLSVNAPEFYISGYS [chain 1 P12I]
17,0.000852,chain 1 SKWSVNAPEFYPSGYS [chain 1 L3W]
18,0.000815,chain 1 SKFSVNAPEFYPSGYS [chain 1 L3F]
19,0.00043,chain 1 SKISVNAPEFYPSGYS [chain 1 L3I]

row,screen value,Variant
1,0.000535,chain 1 SKLPVNAPEFYPSGYS [chain 1 S4P]
2,0.000589,chain 1 SKLLVNAPEFYPSGYS [chain 1 S4L]
3,0.000754,chain 1 SKLFVNAPEFYPSGYS [chain 1 S4F]
4,0.000487,chain 1 SKLTVNAPEFYPSGYS [chain 1 S4T]
5,0.000225,chain 1 SKLYVNAPEFYPSGYS [chain 1 S4Y]
6,8.32e-05,chain 1 SKLNVNAPEFYPSGYS [chain 1 S4N]
7,0.00119,chain 1 SKLSVNTPEFYPSGYS [chain 1 A7T]
8,0.000178,chain 1 SKLSVNVPEFYPSGYS [chain 1 A7V]
9,0.000137,chain 1 SKLSVNPPEFYPSGYS [chain 1 A7P]
10,0.000407,chain 1 SKLSVNSPEFYPSGYS [chain 1 A7S]
11,0.000327,chain 1 SKLSVFAPEFYPSGYS [chain 1 N6F]
12,0.000862,chain 1 SKLSVHAPEFYPSGYS [chain 1 N6H]
13,0.000614,chain 1 SKLSVIAPEFYPSGYS [chain 1 N6I]
14,0.000385,chain 1 SKLSVTAPEFYPSGYS [chain 1 N6T]
15,0.000611,chain 1 SKLSVAAPEFYPSGYS [chain 1 N6A]
16,0.00125,chain 1 SKLSVNAPEFYPSYYS [chain 1 G14Y]
17,9.29e-05,chain 1 SKLSVNAPEFYPSQYS [chain 1 G14Q]
18,0.000231,chain 1 SKLSVNAPEFYPSRYS [chain 1 G14R]
